Measured values published in US20240327495A1 (OXFORD UNIVERSITY INNOVATION, published 2024).

Target: C. difficile toxin B glucosyltransferase domain (GTD, residues 2-543) (Clostridium difficile, UniProt P18177 2-543)
Sequence (P18177 2-543 limits assumed): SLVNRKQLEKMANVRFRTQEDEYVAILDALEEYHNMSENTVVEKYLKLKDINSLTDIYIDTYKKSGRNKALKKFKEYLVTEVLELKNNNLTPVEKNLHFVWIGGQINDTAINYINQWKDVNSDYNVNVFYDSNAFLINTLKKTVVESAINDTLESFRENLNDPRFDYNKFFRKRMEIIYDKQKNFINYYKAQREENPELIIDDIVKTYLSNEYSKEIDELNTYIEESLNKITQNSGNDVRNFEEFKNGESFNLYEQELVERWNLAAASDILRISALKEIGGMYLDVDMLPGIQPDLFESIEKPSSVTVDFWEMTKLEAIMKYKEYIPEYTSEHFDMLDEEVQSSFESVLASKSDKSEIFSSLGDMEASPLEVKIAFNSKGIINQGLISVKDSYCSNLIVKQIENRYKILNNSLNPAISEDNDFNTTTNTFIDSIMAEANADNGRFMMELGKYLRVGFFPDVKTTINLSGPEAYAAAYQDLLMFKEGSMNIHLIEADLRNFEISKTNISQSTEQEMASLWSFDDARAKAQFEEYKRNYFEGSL

B1: GT01 R63A (designed binder, not shown: small tags and cut ends)
chain: DFVLDNEGNPLENGGTYYILSDYGRQLFGGIRAAPTGNERCPLTVVQSLFRNHRDKGIGTIISSPYAIRFIAEGHPLSLKFDSFAVIMLCVGIPTEWSVVEDLPEGPAVKIGENKDAMDGWFRLERVSDDEFNNYKLVFCPQQAEDDKCGDIGISIDHDDGTRRLVVSKNKPLVVQFQKLDKESL
Q: B1 was tested. Which “EC50 (read off the curve)” value did it give?
A: ~7 nM
